From patent US20110263454A1, “Methods of Identifying Functional Characteristics of Promoters, Transcription Modifying Proteins and Transcription Modulating Agents” (Salk Institute for Biological Studies, priority 2008, published 2011)

B1: PXR: Pregnane X Receptor (NR1I2), cDNA driver (protein, UniProt O75469 1-434, looked up)
Nuclear receptor subfamily 1 …: MEVRPKESWNHADFVHCEDTESVPGKPSVNADEEVGGPQICRVCGDKATGYHFNVMTCEGCKGFFRRAMKRNARLRCPFRKGACEITRKTRRQCQACRLRKCLESGMKKEMIMSDEAVEERRALIKRKKSERTGTQPLGVQGLTEEQRMMIRELMDAQMKTFDTTFSHFKNFRLPGVLSSGCELPESLQAPSREEAAKWSQVRKDLCSLKVSLQLRGEDGSVWNYKPPADSGGKEIFSLLPHMADMSTYMFKGIISFAKVISYFRDLPIEDQISLLKGAAFELCQLRFNTVFNAETGTWECGRLSYCLEDTAGGFQQLLLEPMLKFHYMLKKLQLHEEEYVLMQAISLFSPDRPGVLQHRVVDQLQEQFAITLKSYIECNRPQPAHRFLFLKIMAMLTELRSINAQHTQRLLRIQDIHPFATPLMQELFGITGS
B2: CAR: Constitutive Androstane Receptor (NR1I3), cDNA driver (protein, UniProt Q14994 1-352, looked up)
Nuclear receptor subfamily 1 …: MASREDELRNCVVCGDQATGYHFNALTCEGCKGFFRRTVSKSIGPTCPFAGSCEVSKTQRRHCPACRLQKCLDAGMRKDMILSAEALALRRAKQAQRRAQQTPVQLSKEQEELIRTLLGAHTRHMGTMFEQFVQFRPPAHLFIHHQPLPTLAPVLPLVTHFADINTFMVLQVIKFTKDLPVFRSLPIEDQISLLKGAAVEICHIVLNTTFCLQTQNFLCGPLRYTIEDGARVSPTVGFQVEFLELLFHFHGTLRKLQLQEPEYVLLAAMALFSPDRPGVTQRDEIDQLQEEMALTLQSYIKGQQRRPRDRFLYAKLLGLLAELRSINEAYGYQIQHIQGLSAMMPLLQEICS
B3: PPARd: Peroxisome proliferator activated receptor δ (NR1C2), cDNA driver (protein, UniProt Q03181 1-441, looked up)
Peroxisome …: MEQPQEEAPEVREEEEKEEVAEAEGAPELNGGPQHALPSSSYTDLSRSSSPPSLLDQLQMGCDGASCGSLNMECRVCGDKASGFHYGVHACEGCKGFFRRTIRMKLEYEKCERSCKIQKKNRNKCQYCRFQKCLALGMSHNAIRFGRMPEAEKRKLVAGLTANEGSQYNPQVADLKAFSKHIYNAYLKNFNMTKKKARSILTGKASHTAPFVIHDIETLWQAEKGLVWKQLVNGLPPYKEISVHVFYRCQCTTVETVRELTEFAKSIPSFSSLFLNDQVTLLKYGVHEAIFAMLASIVNKDGLLVANGSGFVTREFLRSLRKPFSDIIEPKFEFAVKFNALELDDSDLALFIAAIILCGDRPGLMNVPRVEAIQDTILRALEFHLQANHPDAQYLFPKLLQKMADLRQLVTEHAQMMQRIKKTETETSLHPLLQEIYKDMY
B4: RARg: Retinoic acid receptor γ (NR1B3), nuclear hormone receptor cDNA driver (protein, UniProt P13631 1-454, looked up)
Retinoic acid receptor gamma: MATNKERLFAAGALGPGSGYPGAGFPFAFPGALRGSPPFEMLSPSFRGLGQPDLPKEMASLSVETQSTSSEEMVPSSPSPPPPPRVYKPCFVCNDKSSGYHYGVSSCEGCKGFFRRSIQKNMVYTCHRDKNCIINKVTRNRCQYCRLQKCFEVGMSKEAVRNDRNKKKKEVKEEGSPDSYELSPQLEELITKVSKAHQETFPSLCQLGKYTTNSSADHRVQLDLGLWDKFSELATKCIIKIVEFAKRLPGFTGLSIADQITLLKAACLDILMLRICTRYTPEQDTMTFSDGLTLNRTQMHNAGFGPLTDLVFAFAGQLLPLEMDDTETGLLSAICLICGDRMDLEEPEKVDKLQEPLLEALRLYARRRRPSQPYMFPRMLMKITDLRGISTKGAERAITLKMEIPGPMPPLIREMLENPEMFEDDSSQPGPHPNASSEDEVPGGQGKGGLKSPA
B5: FXR: Farnesoid X Receptor (NR1H4), cDNA driver (protein, UniProt Q96RI1 1-486, looked up)
Bile acid receptor: MVMQFQGLENPIQISPHCSCTPSGFFMEMMSMKPAKGVLTEQVAGPLGQNLEVEPYSQYSNVQFPQVQPQISSSSYYSNLGFYPQQPEEWYSPGIYELRRMPAETLYQGETEVAEMPVTKKPRMGASAGRIKGDELCVVCGDRASGYHYNALTCEGCKGFFRRSITKNAVYKCKNGGNCVMDMYMRRKCQECRLRKCKEMGMLAECMYTGLLTEIQCKSKRLRKNVKQHADQTVNEDSEGRDLRQVTSTTKSCREKTELTPDQQTLLHFIMDSYNKQRMPQEITNKILKEEFSAEENFLILTEMATNHVQVLVEFTKKLPGFQTLDHEDQIALLKGSAVEAMFLRSAEIFNKKLPSGHSDLLEERIRNSGISDEYITPMFSFYKSIGELKMTQEEYALLTAIVILSPDRQYIKDREAVEKLQEPLLDVLQKLCKIHQPENPQHFACLLGRLTELRTFNHHHAEMLMSWRVNDHKFTPLLCEIWDVQ

tested on: mCAR promoter; experiment: NHR-promoter luciferase screen, mCAR promoter; type: cell-based, mouse; settings: mCAR promoter-luciferase, CV-1 cells, NHR +/- ligand, control = 1.00
Method in brief: (§1)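 CV-1 cells were co-transfected with 50 ng NHR (homodimer or NHR/RXR heterodimer), 100 ng promoter-luciferase construct and 50 ng LacZ. Luciferase was normalized to LacZ and to a no-NHR/no-ligand control.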

Molecule	luciferase activity normalized to lacZ activity and to a control, mCAR
B1	1.49
B2	0.51
B3	0.79
B4	1.24
B5	0.88

same assay, conditions: mCAR promoter; HR/ligand component

Molecule	Luc. act., normalized to lacZ	Normalized Luc. act., normalized to control
B1	56.8	1.5
B2	19.41	0.5
B3	30.1	0.8
B4	47.1	1.2
B5	33.6	0.9

tested on: mLeptin promoter; experiment: NHR-promoter luciferase screen, mLeptin promoter; type: cell-based, mouse; settings: Table 7; mLeptin
Method in brief: as §1

Molecule	Luc. act., normalized to lacZ	Normalized Luc. act., normalized to control
B1	4.1	1.4
B2	2.7	0.9
B3	2.6	0.9
B4	3.6	1.2
B5	2.8	0.9

same assay, conditions: Table 6d; luciferase activity relative to control (control = 1.00)

Molecule	Results of assays of transcription factor (+/- ligand) with mLeptin
B1	1.40
B2	0.93
B3	0.89
B4	1.21
B5	0.95

tested on: hPPARg1 promoter; experiment: NHR-promoter luciferase screen, hPPARg1 promoter; type: cell-based, human; settings: PPARG1 promoter; hormone receptor with or without its ligand
Method in brief: as §1

Molecule	Luc. act., normalized to lacZ
B1	63.3
B2	46.4
B3	46.0
B4	80.1
B5	54.8

same assay, conditions: PPARG1 promoter; hormone receptor with or without its ligand; relative to control

Molecule	Normalized Luc. act., normalized to control
B1	0.9
B2	0.7
B3	0.7
B4	1.2
B5	0.8

same assay, conditions: Table 6d; luciferase activity relative to control (control = 1.00)

Molecule	Results of assays of transcription factor (+/- ligand) with hPPARg1
B1	0.92
B2	0.67
B3	0.67
B4	1.16
B5	0.80

tested on: mUCP2 promoter; experiment: NHR-promoter luciferase screen, mUCP2 promoter; type: cell-based, mouse; settings: mUCP2 promoter reporter; co-transfected HR, with or without its ligand
Method in brief: as §1

Molecule	Luc. act., normalized to lacZ
B1	119.1
B2	151.6
B3	172.7
B4	242.5
B5	111.6

same assay, conditions: mUCP2 promoter reporter; co-transfected HR, with or without its ligand; relative to control

Molecule	Normalized Luc. act., normalized to control
B1	1.1
B2	1.4
B3	1.6
B4	2.2
B5	1.0

same assay, conditions: mUCP2 promoter-luciferase, CV-1 cells, NHR +/- ligand, control = 1.00

Molecule	luciferase activity normalized to lacZ activity and to a control, mUCP2
B1	1.08
B2	1.38
B3	1.57
B4	2.21
B5	1.02

tested on: hCYP3A4 promoter; experiment: NHR-promoter luciferase screen, hCYP3A4 promoter; type: cell-based, human; settings: CYP3A4 promoter; HR/ligand component
Method in brief: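 Luciferase reporter read-out after co-expression in CV-1 cells of V5H6-tagged receptor (alone or with RXR), the promoter construct and LacZ. Values are luciferase/LacZ relative to a control lacking NHR or ligand; orphan receptors tested ligand-free.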

Molecule	Luc. act., normalized to lacZ	Normalized Luc. act., normalized to control
B1	8.8	2.0
B2	3.1	0.7
B3	5.0	1.1
B4	4.0	0.9
B5	4.2	0.9

same assay, conditions: transcription factor +/- ligand; control = 1.00

Molecule	hCYP3A4 promoter reporter activity
B1	1.98
B2	0.70
B3	1.12
B4	0.91
B5	0.93

tested on: hIFNg promoter; experiment: NHR-promoter luciferase screen, hIFNg promoter; type: cell-based, human; settings: IFNg promoter; HR component without or with ligand
Method in brief: as §1

Molecule	Luc. act., normalized to lacZ	Normalized Luc. act., normalized to control
B1	23.93	1.5
B2	19.0	1.2
B3	19.72	1.2
B4	22.8	1.4
B5	17.12	1.1

same assay, conditions: transcription factor +/- ligand; control = 1.00

Molecule	hIFNg promoter reporter activity
B1	1.50
B2	1.19
B3	1.24
B4	1.43
B5	1.08
